Source: patent US10155025B2, “Method for inhibiting or reducing transplant rejection by adminstration of interleukin-34” (INSERM (INSTITUT NATIONAL DE LA SANTÉ ET DE LA RECHERCHE …, priority 2014, dated 2018)

Test system: CD4+CD25- T cells stimulated with allogeneic pDCs
Test: MLR: suppression of CFSE-labelled CD4+CD25- T cell proliferation in response to allogeneic pDCs
Assay type: cell-based, rat
Details: dose dependent, 0.1 to 2 μg/ml, 6 days of culture
Description: FIG. 3: Detection of IL-34 using an AAV-IL-34 and inhibition of allo-T cell responses. A. Supernatants of AAV-IL-34 or AAV-GFP-transduced cells were tested for suppression of CD4^+CD25^− T cell proliferation in response to allogeneic pDCs and analysed by flow cytometry for CFSE dilution after 5 days of culture. CD8^+ Tregs were used as positive control of suppression. n=3 in duplicates; Results are expressed as mean±SEM of normalized percentage of proliferation vs. proliferation in the absence of CD8^+ Tregs (100%). […] B. Serial dilution of sera from AAV-IL-34 or AAV-GFP-treated rats or naive animals were tested for suppression of CD4^+CD25^− T cell proliferation in response to allogeneic pDCs and analysed by flow cytometry for CFSE dilution after 5 days of culture. CD8^+ Tregs were used as positive control of suppression. n=3 in duplicates; Results are expressed as mean±SEM of normalized percentage of proliferation vs. proliferation in the absence of CD8^+ Tregs (100%). *, p<0.01; **, p<0.001; ***, p<0.0001 vs. sera from naïve animals.
FIG. 6: M-CSF mediated dose dependent suppression of anti-donor effector CD4^÷CD25^− T cells responses. (A) FACS Aria-sorted CD8^+CD45RC^low Tregs from spleen of naive or 120 days old AdCD40Ig-treated recipients (n=6) were analysed for M-CSF mRNA expression by quantitative RT-PCR. *p<0.05. […]

B1: M-CSF: M-CSF protein (ab56288, ABCAM), macrophage colony stimulating factor (protein, UniProt Q8JZQ0 33-566, looked up)
Macrophage colony-stimulating …: EVSEHCSHMIGNGHLQILQQLIDSQMETACLIEYKFVDQEQLDDPVCYLKKAFVLVQVIIEETMRFKDNTPNANATERLQELSMKLNSCFIKDYKEQNEACVQTYKESPLRLLEKIKNFFNETKNFLEKDWNIFSKNCNDSFAKCSSRDVVTKPDCNCLYPKATPSSDLASASPHQPPAPSMAPLADLAWDDSQRTEGSSLLPSDLPLRIEDPGSAKQRPPRSTCQTLESTEQPNHEDPQPHPSAGAPIPGVEDIIESSMGTNWVLEEASGEASEGFLTQERKFSPSNPVGGSIQAETDRPWARSASSPFPKLTEDQQPTNITDTPLTEVNPMRPTGQTLNNTPEKTDGSSTLREDQQEPRSPHFATLNPQRVGNSATPYAKLLPPKSHSWGIVLPLGELEGKKSTRDRRSPAELKGGPASEGAARPVAQSTRDRRSPAELKGGPASEGAARPVARFNSIPLTDTGSSIQDPQTSAFVFWVLGIILVLLAVGGLLFYSWKRRSHRDPRTLDSSVGRPEGSSLAQDEDRQVELPV
suppression of CD4+CD25- T cells proliferation: up to 93.5%
